Laboratory results: patent US6960559
One block for each substance: values may come before it.

Experiments:
cbz-FAF[125I]Y-NH2 = system: T1, cbz-FAF[125I]Y-NH2
T1 sequence: FAFY

[1] = target: rat CNS myelin (spinal cord myelin membrane fraction); experiment: cell-based or functional assay
[2] = target: rat PNS myelin (sciatic nerve myelin membrane fraction); experiment: solid phase radioimmunoassay, antigen-coated wells, hybridoma supernatant, 125I goat anti-mouse, background subtracted
[3] = target: rat CNS myelin (spinal cord myelin membrane fraction); experiment: as above
[4] = target: rat CNS myelin, trypsin-treated; experiment: as above
[5] = target: 35 kD CNS myelin associated inhibitory protein from rat CNS myelin (rat); experiment: solid phase radioimmunoassay on liposomes with gel-extracted protein, 125I goat anti-mouse, background subtracted
[6] = target: 250 kD CNS myelin associated inhibitory protein from rat CNS myelin (rat); experiment: as above
[7] = target: 35 kD CNS myelin associated inhibitory protein from rat CNS myelin (rat); experiment: cell-based or functional assay
[8] = target: CNS myelin protein liposomes (total rat CNS myelin protein reconstituted in lipid vesicles); experiment: cell-based or functional assay
[9] = target: 250 kD CNS myelin associated inhibitory protein from rat CNS myelin (rat); experiment: cell-based or functional assay

Sequence of tissue-type plasminogen activator (tPA) (P00750 36-562): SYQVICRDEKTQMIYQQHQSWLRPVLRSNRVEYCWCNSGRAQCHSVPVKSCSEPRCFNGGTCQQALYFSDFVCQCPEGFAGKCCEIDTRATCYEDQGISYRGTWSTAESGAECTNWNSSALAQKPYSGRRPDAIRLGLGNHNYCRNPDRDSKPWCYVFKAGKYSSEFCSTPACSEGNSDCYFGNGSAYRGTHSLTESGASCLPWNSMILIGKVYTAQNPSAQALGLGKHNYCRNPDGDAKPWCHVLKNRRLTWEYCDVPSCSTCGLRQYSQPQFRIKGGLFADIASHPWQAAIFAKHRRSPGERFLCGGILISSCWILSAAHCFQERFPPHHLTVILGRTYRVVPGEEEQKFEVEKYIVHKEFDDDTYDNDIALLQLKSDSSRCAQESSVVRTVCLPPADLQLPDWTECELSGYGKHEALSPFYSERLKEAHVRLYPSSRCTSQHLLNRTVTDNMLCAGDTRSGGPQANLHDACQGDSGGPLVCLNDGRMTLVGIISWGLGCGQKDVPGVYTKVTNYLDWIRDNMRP

Substance: C6 plasma membrane associated metalloendoprotease (rat C6 glioblastoma cells)
Amount necessary to degrade 50% of substrate in 30 min [µg], total C6 PM protein (cbz-FAF[125I]Y-NH2): 1.5 µg | cbz-FAF[125I]Y-NH2 degradation by the plasma membrane fraction (5 µg) (cbz-FAF[125I]Y-NH2): 2.7 nmol/min

3H-Thymidine Incorporation (%) of 3T3 cells on CNS myelin preincubated with C6 PM (untreated CNS myelin: 30) [1]: 83% | 3T3 Cell Spreading (%) on CNS myelin preincubated with C6 PM (untreated CNS myelin: 15) [1]: 52%
Substance: C6 plasma membrane associated metalloendoprotease (rat C6 glioblastoma cells) (enzyme)

Substance: cathepsin D
Amount necessary to degrade 50% of substrate in 30 min [µg], pH 4.0 (cbz-FAF[125I]Y-NH2): 0.005 µg | Amount necessary to degrade 50% of substrate in 30 min [µg], pH 7.4 (cbz-FAF[125I]Y-NH2): > 100 µg

Substance: collagenase
Amount necessary to degrade 50% of substrate in 30 min (cbz-FAF[125I]Y-NH2): 3 µg

Amount of Antibody Bound (cpm of 125I-Labeled Goat Anti-Mouse) [2]: 80 cpm | Amount of Antibody Bound (cpm of 125I-Labeled Goat Anti-Mouse) [3]: 550 cpm | Amount of Antibody Bound (cpm of 125I-Labeled Goat Anti-Mouse) [4]: 25 cpm | Amount of Antibody Bound (cpm of 125I-Labeled Goat Anti-Mouse) [5]: 350 cpm | Amount of Antibody Bound (cpm of 125I-Labeled Goat Anti-Mouse) [6]: 250 cpm | 3T3 Spreading (µm^2) on 35 kD liposomes made from IN-1-precipitated protein, Protocol 2 [7]: 270 µm^2 | 3T3 spreading value on CNS lipos. preadsorbed with IN-1 (no antibody: 1.11) [8]: 2030 µm^2 | % inhibition of 3T3 spreading on CNS lipos. preadsorbed with IN-1 (no antibody: 45) [8]: 10% | % inhibition of C6 spreading on CNS lipos. preadsorbed with IN-1, 0.3 mM 1,10-phenanthroline (no antibody: 46) [8]: 11% | C6 spreading value on CNS lipos. preadsorbed with IN-1, 0.3 mM 1,10-phenanthroline (no antibody: 1.35) [8]: 2250 µm^2 | 3T3 Spreading (µm^2) on liposomes of IN-1-immunoprecipitated myelin protein, Protocol 1 [1]: 218 µm^2 | 3T3 Spreading (µm^2) on liposomes of IN-1-immunoprecipitated myelin protein, Protocol 2 [1]: 215 µm^2 | 3T3 Spreading (µm^2) on 250 kD liposomes made from IN-1-precipitated protein, Protocol 2 [9]: 245 µm^2
Substance: monoclonal antibody IN-1

Substance: tissue-type plasminogen activator (tPA)
Amount necessary to degrade 50% of substrate in 30 min (cbz-FAF[125I]Y-NH2): > 100 µg

Substance: trypsin
Amount necessary to degrade 50% of substrate in 30 min (cbz-FAF[125I]Y-NH2): 0.3 µg

Substance: urokinase (uPA)
Amount necessary to degrade 50% of substrate in 30 min (cbz-FAF[125I]Y-NH2): > 100 µg
